Measurements: US10772928B2, “Modulation and detection of a neuronal alternative splicing regulatory network for treatment and diagnosis of neurological disorders” (The Governing Council of the University of Toronto, priority 2014, dated 2020)

T1: nSR100 (Mus musculus, UniProt Q8BKA3)
T1 construct: host or cells: mouse N2A cells
T1 sequence (Q8BKA3 1-608): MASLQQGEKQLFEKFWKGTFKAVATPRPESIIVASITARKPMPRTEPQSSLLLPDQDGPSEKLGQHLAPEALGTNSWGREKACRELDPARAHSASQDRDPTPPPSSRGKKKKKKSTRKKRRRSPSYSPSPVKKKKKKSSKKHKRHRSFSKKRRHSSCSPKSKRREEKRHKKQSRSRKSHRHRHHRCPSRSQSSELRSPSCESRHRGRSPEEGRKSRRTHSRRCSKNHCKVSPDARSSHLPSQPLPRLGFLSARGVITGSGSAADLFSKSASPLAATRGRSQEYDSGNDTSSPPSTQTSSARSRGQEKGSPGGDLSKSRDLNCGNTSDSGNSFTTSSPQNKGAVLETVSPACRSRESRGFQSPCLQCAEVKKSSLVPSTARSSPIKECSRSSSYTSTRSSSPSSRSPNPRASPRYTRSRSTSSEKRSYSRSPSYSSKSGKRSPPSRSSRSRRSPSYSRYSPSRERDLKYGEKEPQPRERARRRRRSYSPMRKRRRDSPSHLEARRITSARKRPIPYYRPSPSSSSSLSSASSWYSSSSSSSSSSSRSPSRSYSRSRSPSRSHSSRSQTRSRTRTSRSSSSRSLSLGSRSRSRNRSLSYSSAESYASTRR


Target: T1, nSR100
Test: AP-MS nSR100 interaction partners from mouse N2A cells (Table 5)
Assay type: binding
Settings: for AvgP (average of the SAINT scores) / MaxP (maximal SAINT score): bait Srrm4; for FoldChange between the prey Avg spectra of the bait and control purifications: bait Srrm4, 0.1 added to prevent division by 0; for AvgSpec (average number of spectra per replicate): bait Srrm4, 2 replicates; for Spectra (number of spectra for the prey in the purification of the bait): AP-MS; for SpecSum: bait Srrm4, sum of spectra over 2 replicates
[1] = bait Srrm4, biological replicate 1 (first number of the cell)
[2] = bait Srrm4, biological replicate 2 (second number of the cell)

Excerpt: By applying affinity purification coupled to mass-spectrometry (AP-MS), several interaction nSR100 partner proteins were detected that provide insight into mechanisms of post-translational regulation of nSR100 levels.

Molecule	AvgP (average of the SAINT scores)	MaxP (maximal SAINT score)	FoldChange between the prey Avg spectra of the bait and control purifications	AvgSpec (average number of spectra per replicate)	Spectra (number of spectra for the prey in the purification of the bait) [1]	Spectra (number of spectra for the prey in the purification of the bait) [2]	SpecSum
Rad23b (protein, UniProt P54728 1-416, looked up) UV excision repair protein …: MQVTLKTLQQQTFKIDIDPEETVKALKEKIESEKGKDAFPVAGQKLIYAGKILSDDTALKEYKIDEKNFVVVMVTKPKAVTTAVPATTQPSSTPSPTAVSSSPAVAAAQAPAPTPALPPTSTPASTAPASTTASSEPAPAGATQPEKPAEKPAQTPVLTSPAPADSTPGDSSRSNLFEDATSALVTGQSYENMVTEIMSMGYEREQVIAALRASFNNPDRAVEYLLMGIPGDRESQAVVDPPPQAVSTGTPQSPAVAAAAATTTATTTTTSGGHPLEFLRNQPQFQQMRQIIQQNPSLLPALLQQIGRENPQLLQQISQHQEHFIQMLNEPVQEAGSQGGGGGGGGGGGGGGGGGIAEAGSGHMNYIQVTPQEKEAIERLKALGFPEGLVIQAYFACEKNENLAANFLLQQNFDED	1	1	35	3.5	3	4	7
Ap2b1 (protein, UniProt Q9DBG3 2-937, looked up) AP-2 complex subunit beta: TDSKYFTTNKKGEIFELKAELNNEKKEKRKEAVKKVIAAMTVGKDVSSLFPDVVNCMQTDNLELKKLVYLYLMNYAKSQPDMAIMAVNSFVKDCEDPNPLIRALAVRTMGCIRVDKITEYLCEPLRKCLKDEDPYVRKTAAVCVAKLHDINAQMVEDQGFLDSLRDLIADSNPMVVANAVAALSEISESHPNSNLLDLNPQNINKLLTALNECTEWGQIFILDCLSNYNPKDDREAQSICERVTPRLSHANSAVVLSAVKVLMKFLELLPKDSDYYNMLLKKLAPPLVTLLSGEPEVQYVALRNINLIVQKRPEILKQEIKVFFVKYNDPIYVKLEKLDIMIRLASQANIAQVLAELKEYATEVDVDFVRKAVRAIGRCAIKVEQSAERCVSTLLDLIQTKVNYVVQEAIVVIRDIFRKYPNKYESIIATLCENLDSLDEPDARAAMIWIVGEYAERIDNADELLESFLEGFHDESTQVQLTLLTAIVKLFLKKPSETQELVQQVLSLATQDSDNPDLRDRGYIYWRLLSTDPVTAKEVVLSEKPLISEETDLIEPTLLDELICHIGSLASVYHKPPNAFVEGSHGIHRKHLPIHHGSTDAGDSPVGTTTTTNLEQPQVIPSQGDLLGDLLNLDLGPPVNVPQVSSMQMGAVDLLGGGLDSLVGQSFIPSSVPATFAPSPTPAVVSSGLNDLFELSTGIGMAPGGYVAPKAVWLPAVKAKGLEISGTFTHRQGHIYMEMNFTNKALQHMTDFAIQFNKNSFGVIPSTPLAIHTPLMPNQSIDVSLPLNTLGPVMKMEPLNNLQVAVKNNIDVFYFSCLIPLNVLFVEDGKMERQVFLATWKDIPNENELQFQIKECHLNADTVSSKLQNNNVYTIAKRNVEGQDMLYQSLKLTNGIWILAELRIQPGNPNYTLSLKCRAPEVSQYIYQVYDSILKN	1	1	5.13	79.5	83	76	159
Ftsjd2 (protein, UniProt Q9DBC3 1-837, looked up) Cap-specific mRNA …: MKRRTDPECTAPLKKQKRIGELARHLSSTSDDEPLSSVNHAAKASATSLSGSDSETEGKQPCSDDFKDAFKADSLVEGTSSRYSMYNSVSQRLMAKMGFREGEGLGKYSQGRKDIVETSNQKGRRGLGLTLQGFDQELNVDWRDEPEPNACEQVSWFPECTTEIPDSREMSDWMVVGKRKMVIEDETEFCGEELLHSMLKCKSVFDILDGEEMRRARTRANPYEMIRGVFFLNRAAMKMANMDFVFDRMFTNPLDSSGKPLLKESDIDLLYFADVCAGPGGFSEYVLWRKKWHAKGFGMTLKGPNDFKLEDFYSASSELFEPYYGEGGVDGDGDITRPENINAFRNFVLDNTDRKGVHFVMADGGFSVEGQENLQEILSKQLLLCQFLMALSVVRTGGHFVCKTFDLFTPFSVGLIYLLYCCFERVCLFKPITSRPANSERYVVCKGLKVGIDDVREYLFSVNIKLNQLRNTESDVNLVVPLMVIKGDHEFNDYMIRSNESYCSLQIKALAKIHAFVQDTTLSEPRQAEIRKECLQLWKIPDQARVAPSSSDPKFKFFELIKDTDINIFSYKPTLLTAKTLEKIRPVLEYRCMVSGSEQKFLLGLGKSQIYTWDGRQSDRWVKLDLKTELPRDTLLCVEIVHELKGEGKAQRKISAIHILDVLVLNGSDVREQHFNQRIQLAEKFVKAVSKPSRPDMNPIRVKEVYRLEEMEKIFVRLEMKLIKGSGGTPKLSYTGRDDRHFVPTGVYIVRTVNEPWTMGFSKSNNRKFFYNKKTQKSVYALPTESIAPFHTCYYSRLFWEWGDGFHMRDSQKPQDPDKLSKEDVLSFIQSHNPLGP	1	1	40	4	4|4	4|4	8

The remaining lines, values ahead:

AvgP (average of the SAINT scores)	MaxP (maximal SAINT score)	FoldChange between the prey Avg spectra of the bait and control purifications	AvgSpec (average number of spectra per replicate)	Spectra (number of spectra for the prey in the purification of the bait) [1]	Spectra (number of spectra for the prey in the purification of the bait) [2]	SpecSum	Molecule
1	1	6.78	30.5	25	36	61	Srrm1 (protein, UniProt Q52KI8 1-946, looked up) Serine/arginine repetitive …: MDAGFFRGTSAEQDNRFSNKQKKLLKQLKFAECLEKKVDMSKVNLEVIKPWITKRVTEILGFEDDVVIEFIFNQLEVKNPDSKMMQINLTGFLNGKNAREFMGELWPLLLSAQENIAGIPSAFLELKKEEIKQRQIEQEKLASLKKQDEDKDKRDKEEKESSREKRERSRSPRRRKSRSPSPRRRSSPVRRERKRSHSRSPRHRTKSRSPSPAPEKKEKSPELPEPSVRMKDSSVQEATSTSDILKAPKPEPVPEPKEPSPEKNSKKEKEKTRPRSRSRSKSRSRTRSRSPSHTRPRRRHRSRSRSYSPRRRPSPRRRPSPRRRTPPRRMPPPPRHRRSRSPGRRRRRSSASLSGSSSSSSSSRSRSPPKKPPKRTSSPPRKTRRLSPSASPPRRRHRPSSPATPPPKTRHSPTPQQSNRTRKSRVSVSPGRTSGKVTKHKGTEKRESPSPAPKPRKVELSESEEDKGSKMAAADSVQQRRQYRRQNQQSSSDSGSSSTSEDERPKRSHVKNGEVGRRRRHSPSRSASPSPRKRQKETSPRMQMGKRWQSPVTKSSRRRRSPSPPPARRRRSPSPAPPPPPPPPPPRRRRSPTPPPRRRTPSPPPRRRSPSPRRYSPPIQRRYSPSPPPKRRTASPPPPPKRRASPSPPPKRRVSHSPPPKQRSPTVTKRRSPSLSSKHRKGSSPGRSTREARSPQPNKRHSPSPRPRAPQTSSPPPVRRGASASPQGRQSPSPSTRPIRRVSRTPEPKKIKKTAMATQRNIRRVSKSPKADSLSRAASPSPQSVRRVSSSRSVSGSPEPAAKKPPAPPSPVQSQSPSTNWSPAVPAKKAKSPTPSLSPARNSDQEGGGKKKKKKKDKKHKKDKKHKKHKKHKKEKAVTIATPATAAPAAVSAATTTSAQEEPAAAPEPRKETESEAEDDNLDDLERHLREKALRSMRKAQVSPQS
1	1	3.48	97.5	90	105	195	Sf3b3 (protein, UniProt Q921M3 1-1217, looked up) Splicing factor 3B subunit 3: MFLYNLTLQRATGISFAIHGNFSGTKQQEIVVSRGKILELLRPDPNTGKVHTLLTVEVFGVIRSLMAFRLTGGTKDYIVVGSDSGRIVILEYQPSKNMFEKIHQETFGKSGCRRIVPGQFLAVDPKGRAVMISAIEKQKLVYILNRDAAARLTISSPLEAHKANTLVYHVVGVDVGFENPMFACLEMDYEEADNDPTGEAAANTQQTLTFYELDLGLNHVVRKYSEPLEEHGNFLITVPGGSDGPSGVLICSENYITYKNFGDQPDIRCPIPRRRNDLDDPERGMIFVCSATHKTKSMFFFLAQTEQGDIFKITLETDEDMVTEIRLKYFDTVPVAAAMCVLKTGFLFVASEFGNHYLYQIAHLGDDDEEPEFSSAMPLEEGDTFFFQPRPLKNLVLVDELDSLSPILFCQIADLANEDTPQLYVACGRGPRSSLRVLRHGLEVSEMAVSELPGNPNAVWTVRRHIEDEFDAYIIVSFVNATLVLSIGETVEEVTDSGFLGTTPTLSCSLLGDDALVQVYPDGIRHIRADKRVNEWKTPGKKTIVKCAVNQRQVVIALTGGELVYFEMDPSGQLNEYTERKEMSADVVCMSLANVPPGEQRSRFLAVGLVDNTVRIISLDPSDCLQPLSMQALPAQPESLCIVEMGGTEKQDELGERGSIGFLYLNIGLQNGVLLRTVLDPVTGDLSDTRTRYLGSRPVKLFRVRMQGQEAVLAMSSRSWLSYSYQSRFHLTPLSYETLEFASGFASEQCPEGIVAISTNTLRILALEKLGAVFNQVAFPLQYTPRKFVIHPESNNLIIIETDHNAYTEATKAQRKQQMAEEMVEAAGEDERELAAEMAAAFLNENLPESIFGAPKAGNGQWASVIRVMNPIQGNTLDLVQLEQNEAAFSVAVCRFSNTGEDWYVLVGVAKDLILSPRSVAGGFVYTYKLVNNGEKLEFLHKTPVEEVPAAIAPFQGRVLIGVGKLLRVYDLGKKKLLRKCENKHIANYISGIQTIGHRVIVSDVQESFIWVRYKRNENQLIIFADDTYPRWVTTASLLDYDTVAGADKFGNICVVRLPPNTNDEVDEDPTGNKALWDRGLLNGASQKAEVIMNYHVGETVLSLQKTTLIPGGSESLVYTTLSGGIGILVPFTSHEDHDFFQHVEMHLRSEHPPLCGRDHLSFRSYYFPVKNVIDGDLCEQFNSMEPNKQKNVSEELDRTPPEVSKKLEDIRTRYAF
